Measured values: patent publication US20240124607A1 (Merck Sharp & Dohme, published 2024)

T1: human CEACAM8 on Ba/F3 cells (human, UniProt P31997 35-320)
T1 construct: whole, on cells
T1 sequence (looked up): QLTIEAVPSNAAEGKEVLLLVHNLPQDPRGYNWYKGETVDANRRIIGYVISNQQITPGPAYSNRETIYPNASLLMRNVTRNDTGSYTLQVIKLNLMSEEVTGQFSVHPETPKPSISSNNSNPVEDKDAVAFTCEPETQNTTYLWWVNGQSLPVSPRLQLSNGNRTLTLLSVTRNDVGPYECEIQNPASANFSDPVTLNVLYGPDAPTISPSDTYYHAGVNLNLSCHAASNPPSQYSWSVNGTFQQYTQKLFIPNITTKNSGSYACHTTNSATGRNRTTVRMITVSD

T2: human CEACAM5 on cells (human, UniProt P06731 35-685)
T2 construct: tumour cell lines with endogenous CEACAM5, or B16F10 engineered to express hCEACAM5; also called CEACAM5 on MKN-45, HPAF-II, SK-CO-1, LoVo, BxPC-3, Kato-III, LS-174T, ZR-75-30; hCEACAM5-B16F10
T2 sequence: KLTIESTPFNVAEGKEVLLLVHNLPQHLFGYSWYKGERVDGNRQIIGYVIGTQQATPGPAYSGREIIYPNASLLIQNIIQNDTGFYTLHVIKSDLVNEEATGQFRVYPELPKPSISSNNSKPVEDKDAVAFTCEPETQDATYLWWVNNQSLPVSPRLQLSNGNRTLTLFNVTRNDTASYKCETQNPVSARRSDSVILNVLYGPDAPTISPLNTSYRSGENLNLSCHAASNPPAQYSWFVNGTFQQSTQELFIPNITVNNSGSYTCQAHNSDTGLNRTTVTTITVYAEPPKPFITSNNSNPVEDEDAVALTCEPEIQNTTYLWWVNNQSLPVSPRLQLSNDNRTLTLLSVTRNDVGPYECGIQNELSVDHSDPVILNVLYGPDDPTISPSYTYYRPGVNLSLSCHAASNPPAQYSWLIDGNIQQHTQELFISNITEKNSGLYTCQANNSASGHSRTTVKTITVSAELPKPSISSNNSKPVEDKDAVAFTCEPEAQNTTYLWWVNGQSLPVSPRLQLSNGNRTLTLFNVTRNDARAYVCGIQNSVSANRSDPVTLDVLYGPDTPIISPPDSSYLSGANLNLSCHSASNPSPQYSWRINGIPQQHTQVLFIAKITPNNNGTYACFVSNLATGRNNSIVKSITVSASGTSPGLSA

T3: Human CEACAM5 (E398) (human, UniProt P06731 35-685, limits assumed)
T3 construct: also called hCEACAM5
T3 sequence: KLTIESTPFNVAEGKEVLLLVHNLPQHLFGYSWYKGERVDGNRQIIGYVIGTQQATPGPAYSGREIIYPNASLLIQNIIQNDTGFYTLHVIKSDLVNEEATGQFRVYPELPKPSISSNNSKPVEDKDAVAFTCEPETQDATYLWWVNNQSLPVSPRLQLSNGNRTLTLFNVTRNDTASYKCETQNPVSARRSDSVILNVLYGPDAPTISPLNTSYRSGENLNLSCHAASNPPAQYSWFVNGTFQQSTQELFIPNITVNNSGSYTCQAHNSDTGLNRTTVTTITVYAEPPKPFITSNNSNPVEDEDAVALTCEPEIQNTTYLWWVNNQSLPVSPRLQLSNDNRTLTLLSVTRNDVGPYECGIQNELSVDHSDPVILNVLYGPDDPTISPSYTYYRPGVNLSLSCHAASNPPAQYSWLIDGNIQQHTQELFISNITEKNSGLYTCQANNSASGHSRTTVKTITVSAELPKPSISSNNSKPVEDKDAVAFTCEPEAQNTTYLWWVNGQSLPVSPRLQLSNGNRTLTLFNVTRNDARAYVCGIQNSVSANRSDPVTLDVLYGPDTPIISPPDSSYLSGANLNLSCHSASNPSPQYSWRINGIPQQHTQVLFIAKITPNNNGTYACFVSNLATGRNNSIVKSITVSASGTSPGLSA


Key:
[1] = target: T1, human CEACAM8 on Ba/F3 cells; experiment: flow cytometry on Ba/F3 cells expressing human CEACAM8, fold over background (FOB), 5-fold dilutions from 1600 nM
Description: To examine the binding specificity of the TriNKETs to CEACAM5 compared to other CEACAM family members, Ba/F3 cells were engineered to express one of human CEACAM1, CEACAM6, CEACAM8, or cynomolgus CEACAM5. CEACAM5 TriNKETs were evaluated by flow cytometry starting at 1600 nM followed by 7 5-fold dilutions.

human CEACAM5 on cells = target: T2, human CEACAM5 on cells; experiment: flow cytometry, HPAF-II cells
Description: MKN-45 and HPAF-II human cancer cell lines were diluted into FACS buffer and 100,000 cells of each cell type were seeded per well in duplicate into 96-well plates for FACS staining. The cells were washed with PBS, incubated in a 1:2000 dilution of live/dead dye in PBS for 15 minutes, and then washed with FACS buffer. AB0264, AB0411, AB0466, and AB0621 were diluted into FACS buffer, and 50 μl of each diluted TriNKET was added to the cells. After incubation on ice for 30-120 minutes, the cells were washed with FACS buffer. Anti-human IgG-Fc secondary antibody was diluted into FACS buffer, and 50 μl was added per well for detection of the bound TriNKETs. The cells were incubated for 30-60 minutes on ice and then washed with FACS buffer. 50 μl of fixation buffer was added to each well and the cells were incubated for 10 minutes at room temperature. The cells were washed with FACS buffer and resuspended in FACS buffer for analysis with ThermoFisher Attune NxT, BD FACS Celesta SN #H66034400085, or BD FACS Celesta SN #H66034400160.
Cells of interest were identified using FSC vs. SSC plot and an appropriately shaped gate was drawn around the cells. Within the gated cells, doublet cells were removed by viewing FSC-H vs. FSC-A plot. Within the single cell population, live cells were gated. Within the live gate, the median fluorescence intensity (MFI) of each sample and the secondary-only control was calculated. Fold-over-background (FOB) was calculated as the ratio of test article MFI over secondary-only background MFI. Data were fit to a four-parameter non-linear regression curve using GraphPad Prism 7.0.

Cyno FcγRIIIA = target: T4, Cyno FcγRIIIA (cynomolgus monkey, UniProt Q8SPW2 17-208, limits assumed, biotinylated); experiment: SPR, biotin-CD16A on SA chip, 25C, pH 6.0
T4 construct: also called cynomolgus CD16A
T4 sequence (Q8SPW2 17-208 limits assumed): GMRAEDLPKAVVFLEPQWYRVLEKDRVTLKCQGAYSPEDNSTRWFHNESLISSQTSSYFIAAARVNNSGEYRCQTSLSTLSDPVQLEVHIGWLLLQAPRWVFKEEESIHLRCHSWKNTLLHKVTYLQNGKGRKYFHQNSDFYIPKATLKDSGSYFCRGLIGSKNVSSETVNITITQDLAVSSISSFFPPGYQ
Description: (§1) Binding to human and cynomolgus CD16A was assessed using biotinylated CD16A captured on a streptavidin (SA) sensor chip (Cytiva, #BR100531). AB0411, AB0466, or AB0621 was titrated from 1500 nM at 25° C. at 30 μL/min for 150 sec association followed by 300 sec dissociation. The surface of the chip was regenerated with 2 mM sodium hydroxide for 5 sec at 30 μL/min. Running buffer was HBS-EP+. […] The V158 isoform bound ˜2- to 3-fold tighter than the F158 isoform as expected.

[2] = target: T5, human CD16A (FcγRIIIA) V158 (human, UniProt P08637 17-208, limits assumed, biotinylated in the assay of Table 21); experiment: SPR, biotin-CD16A on SA chip, 25C, pH 6.0
T5 construct: also called CD16A (V158/V176)
T5 sequence (P08637 17-208 F176V limits assumed): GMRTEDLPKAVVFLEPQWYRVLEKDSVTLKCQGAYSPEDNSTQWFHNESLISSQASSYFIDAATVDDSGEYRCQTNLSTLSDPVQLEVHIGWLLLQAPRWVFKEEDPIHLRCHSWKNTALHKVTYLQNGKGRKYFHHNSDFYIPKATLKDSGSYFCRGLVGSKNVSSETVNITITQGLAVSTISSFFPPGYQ
Description: as §1

Human CEACAM5 (E398) = target: T3, Human CEACAM5 (E398); experiment: SPR, anti-hFc capture, 37C, pH 7.4
Description: To determine the affinity and cross-reactivity of CEACAM5 TriNKET molecules, AB0411, AB0466, or AB0621 TriNKETs were captured using an anti-human Fc capture antibody (Cytiva, #BR100839) immobilized onto a Biacore CM5 standard surface sensor chip following manufacturer instructions. Human or cynomolgus CEACAM5 were titrated over captured AB0411, AB0466, and AB0621 as 2-fold serial dilutions starting from 300 nM. Association was monitored for 300 sec and dissociation was monitored for 600 sec. The assay was run at 37° C. at pH 7.4 and 6.0. The surface of the CM5 chip was regenerated with 10 mM glycine pH 1.5 for 20 sec at 100 μL/min.

Binder	binding result [1]	EC50 (human CEACAM5 on cells) [nM]	Max FOB (human CEACAM5 on cells) [fold over background]	Kd (Cyno FcγRIIIA) [nM]	koff (Cyno FcγRIIIA) [s⁻¹]	kon (Cyno FcγRIIIA) [M⁻¹ s⁻¹]	Kd [2] [nM]	koff [2] [s⁻¹]	kon [2] [M⁻¹ s⁻¹]	Kd (Human CEACAM5 (E398)) [nM]	kon (Human CEACAM5 (E398)) [M⁻¹ s⁻¹]
AB0466 F3' CEACAM5 TriNKET (bispecific antibody, human IgG1, kappa) not shown heavy: EVQLVESGGGLVKPGGSLRLSCAASGFTFSSYSMNWVRQAPGKGLEWVSSISSSSSYIYYADSVKGRFTISRDNAKNSLYLQMNSLRAEDTAVYYCARGAPIGAAAGWFDPWGQGTLVTVSSASTKGPSVFPLAPSSKSTSGGTAALGCLVKDYFPEPVTVSWNSGALTSGVHTFPAVLQSSGLYSLSSVVTVPSSSLGTQTYICNVNHKPSNTKVDKKVEPKSCDKTHTCPPCPAPELLGGPSVFLFPPKPKDTLMISRTPEVTCVVVDVSHEDPEVKFNWYVDGVEVHNAKTKPREEQYNSTYRVVSVLTVLHQDWLNGKEYKCKVSNKALPAPIEKTISKAKGQPREPQVCTLPPSRDELTENQVSLTCLVKGFYPSDIAVEWESNGQPENNYKTTPPVLDSDGSFFLYSWLTVDKSRWQQGNVFSCSVMHEALHNHYTQKSLSLSPG light: DIQMTQSPSSVSASVGDRVTITCRASQGISSWLAWYQQKPGKAPKLLIYAASSLQSGVPSRFSGSGSGTDFTLTISSLQPEDFATYYCQQGVSFPRTFGGGTKVEIKRTVAAPSVFIFPPSDEQLKSGTASVVCLLNNFYPREAKVQWKVDNALQSGNSQESVTEQDSKDSTYSLSSTLTLSKADYEKHKVYACEVTHQGLSSPVTKSFNRGEC	no binding (tested: 1600 nM)	7.61	49	19	0.047	2.4e+06	47	0.038	820000	7.2	190000
AB0264 F3' CEACAM5 TriNKET (bispecific antibody, human IgG1, kappa) DIVMTQSPDSLAVSLGERATINCKSSHSLLYGNFQNNYLAWYQQKPGQPPKLLIYWASTRESGVPDRFSGSGSGTDFTLTISSLQAEDVAVYYCQQYYSYPYTFGCGTKLEIKGGGGSGGGGSGGGGSGGGGSQVQLVQSGAEVKKPGASVKVSCKASGYTFTAYTIHWVRQAPGQCLEWMGYINPSSGYTEYNQKFKDRTTLTADTSIPTAYMELSRLRSDDTAVYYCTREGGLLWFDYWGQGTLVTVSSGSDKTHTCPPCPAPELLGGPSVFLFPPKPKDTLMISRTPEVTCVVVDVSHEDPEVKFNWYVDGVEVHNAKTKPREEQYNSTYRVVSVLTVLHQDWLNGKEYKCKVSNKALPAPIEKTISKAKGQPREPRVYTLPPCRDELTKNQVSLTCLVKGFYPSDIAVEWESNGQPENNYKTTPPVLVSDGSFTLYSKLTVDKSRWQQGNVFSCSVMHEALHNHYTQKSLSLSPG heavy: EVQLVESGGGLVKPGGSLRLSCAASGFTFSSYSMNWVRQAPGKGLEWVSSISSSSSYIYYADSVKGRFTISRDNAKNSLYLQMNSLRAEDTAVYYCARGAPIGAAAGWFDPWGQGTLVTVSSASTKGPSVFPLAPSSKSTSGGTAALGCLVKDYFPEPVTVSWNSGALTSGVHTFPAVLQSSGLYSLSSVVTVPSSSLGTQTYICNVNHKPSNTKVDKKVEPKSCDKTHTCPPCPAPELLGGPSVFLFPPKPKDTLMISRTPEVTCVVVDVSHEDPEVKFNWYVDGVEVHNAKTKPREEQYNSTYRVVSVLTVLHQDWLNGKEYKCKVSNKALPAPIEKTISKAKGQPREPQVCTLPPSRDELTENQVSLTCLVKGFYPSDIAVEWESNGQPENNYKTTPPVLDSDGSFFLYSWLTVDKSRWQQGNVFSCSVMHEALHNHYTQKSLSLSPG light: DIQMTQSPSSVSASVGDRVTITCRASQGISSWLAWYQQKPGKAPKLLIYAASSLQSGVPSRFSGSGSGTDFTLTISSLQPEDFATYYCQQGVSFPRTFGGGTKVEIKRTVAAPSVFIFPPSDEQLKSGTASVVCLLNNFYPREAKVQWKVDNALQSGNSQESVTEQDSKDSTYSLSSTLTLSKADYEKHKVYACEVTHQGLSSPVTKSFNRGEC	no binding (tested: 1600 nM)	20.3	27.9	–	–	–	–	–	–	–	–
AB0411 F3' CEACAM5 TriNKET (bispecific antibody, human IgG1, kappa) DIQLTQSPATLSVSPGERATLSCRASQSVSSSYLAWYQQKPGQAPRLLIYGASSRATGIPDRFSGSGSGTDFTLTISRLEPEDFAVYYCQQYNNWPLTFGCGTKVEIKGGGGSGGGGSGGGGSGGGGSQVQLVQSGGGLVQPGGSLRLSCAASGFTFTSYAMSWVRQAPGKCLEWVSAISGTGDSTFYADSVKGRFTFSRDNSKNTLYLQMNSLRAEDTAVYYCAKDLGWLQYGLFDYWGQGTLVTVSSGSDKTHTCPPCPAPELLGGPSVFLFPPKPKDTLMISRTPEVTCVVVDVSHEDPEVKFNWYVDGVEVHNAKTKPREEQYNSTYRVVSVLTVLHQDWLNGKEYKCKVSNKALPAPIEKTISKAKGQPREPRVYTLPPCRDELTKNQVSLTCLVKGFYPSDIAVEWESNGQPENNYKTTPPVLVSDGSFTLYSKLTVDKSRWQQGNVFSCSVMHEALHNHYTQKSLSLSPG heavy: EVQLVESGGGLVKPGGSLRLSCAASGFTFSSYSMNWVRQAPGKGLEWVSSISSSSSYIYYADSVKGRFTISRDNAKNSLYLQMNSLRAEDTAVYYCARGAPIGAAAGWFDPWGQGTLVTVSSASTKGPSVFPLAPSSKSTSGGTAALGCLVKDYFPEPVTVSWNSGALTSGVHTFPAVLQSSGLYSLSSVVTVPSSSLGTQTYICNVNHKPSNTKVDKKVEPKSCDKTHTCPPCPAPELLGGPSVFLFPPKPKDTLMISRTPEVTCVVVDVSHEDPEVKFNWYVDGVEVHNAKTKPREEQYNSTYRVVSVLTVLHQDWLNGKEYKCKVSNKALPAPIEKTISKAKGQPREPQVCTLPPSRDELTENQVSLTCLVKGFYPSDIAVEWESNGQPENNYKTTPPVLDSDGSFFLYSWLTVDKSRWQQGNVFSCSVMHEALHNHYTQKSLSLSPG light: DIQMTQSPSSVSASVGDRVTITCRASQGISSWLAWYQQKPGKAPKLLIYAASSLQSGVPSRFSGSGSGTDFTLTISSLQPEDFATYYCQQGVSFPRTFGGGTKVEIKRTVAAPSVFIFPPSDEQLKSGTASVVCLLNNFYPREAKVQWKVDNALQSGNSQESVTEQDSKDSTYSLSSTLTLSKADYEKHKVYACEVTHQGLSSPVTKSFNRGEC	–	8.36	54.9	16	–	–	36	0.029	830000	1.7	270000
